Target: the molecule itself
Experiment: SEC-MALS; SEC-MALLS, Superdex S200 10/300 GL, 100 mM Tris pH 7.5, 300 mM NaCl, 100 µl at ~2 mg/ml, 0.5 ml/min, 20 °C

B1: Pseudomonas putida SQ dehydrogenase (PpSQDH) (enzyme, Pseudomonas putida SQ1)
chain: MNRHTDTHYPSLADKVVLISGGASGIGRAFVEAFVAQGSRVAFLDLDAEAGQGLAHALGANSLFLPCDVRDIERLKACVAEVERTWGAVDVLINNAARDDRHALADVSVEYWDERMQTNLRHAFFAAQAVAPGMARRGSGAIINMGSISWMRGRPGMVCYTTAKAALNGMTRTLARELGGQGIRINSLVPGAIRTERQDAMWAADPAGLEAASQAFIDQQMLKFRLDASDCARLALFLASDDSRGCTGQNFVVDAGLSIQ
notes: SQ dehydrogenase PpSQ1_00090 of Pseudomonas putida SQ1; Gln260 is the C-terminal residue; no step that removes the tag is described; A second preparation for kinetics was made in 'NEB T7 Express' E. coli (HisTrap, Superdex 75); also called sulfoquinovose dehydrogenase; PpSQ1_00090; source: E. coli BL21(DE3), purified (Ni-NTA IMAC, SEC)
stoichiometry N: 4

Source: article PMC12133307, “Structure, kinetics, and mechanism of Pseudomonas putida sulfoquinovose dehydrogenase, the first enzyme in the sulfoglycolytic Entner-Doudoroff pathway” (Biochemical Journal, 2025)
